Results on six substances are retold here after article PMC6657065.

By stoichiometry N is commonly meant a count of units in the complex or per binding partner.

What all share (assay): SEC; Superdex-200 on FPLC after TEV removal of the MBP tag; 20 mM NaH2PO4 pH 7.0, 0.3 M NaCl, 1 mM TCEP, 10% glycerol, 0.005% FC-16; 4 °C; mass by regression against gel filtration standards (Bio-Rad); self-association, oligomer size
The target in assay [1] is Bambusa oldhamii cellulose synthase BoCesA7 (Bambusa oldhamii).
The target in assay [2] is Bambusa oldhamii cellulose synthase BoCesA5 (Bambusa oldhamii).
Assay [3] concerns the target Bambusa oldhamii cellulose synthase BoCesA4 (Bambusa oldhamii).
The target of assay [4] is Bambusa oldhamii cellulose synthase BoCesA1 (Bambusa oldhamii).
Assay [5] has as its target Bambusa oldhamii cellulose synthase BoCesA3 (Bambusa oldhamii).
Assay [6] concerns the target Bambusa oldhamii cellulose synthase BoCesA2 (Bambusa oldhamii).

For the substance “Bambusa oldhamii cellulose synthase BoCesA7 (enzyme)”, in assay [1], the stoichiometry N came out at 6.

“Bambusa oldhamii cellulose synthase BoCesA5 (enzyme)”: the stoichiometry N in assay [2] amounted to 6. In assay [3], “Bambusa oldhamii cellulose synthase BoCesA4 (enzyme)” came in with a stoichiometry N of 6. The substance “Bambusa oldhamii cellulose synthase BoCesA1 (enzyme)” returned a stoichiometry N in assay [4] of 6. Substance “Bambusa oldhamii cellulose synthase BoCesA3 (enzyme)” gave a stoichiometry N in assay [5] of 6. Regarding “Bambusa oldhamii cellulose synthase BoCesA2 (enzyme)”, the stoichiometry N in assay [6] came to 6.
